Data reported in PMC11142921 (2024).
Changes are numbered by the printed parent chain. Read-outs that look alike come from different tables or passages of the source.

B1: E3 (affinity-matured variant of hI365) (antibody, V domains shown)
VH: EVQLVESGGGLVQPGGSLRLSCAASGFNFFYSIHWVRQAPGKGLEWVASISPYTDYTSYADSVKGRFTISADTSKNTAYLQMNSLRAEDTAVYYCARKHPGSYPFWGFALDYWGQGTLVTVSS
VL: DIQMTQSPSSLSASVGDRVTITCRASQSVSSAVAWYQQKPGKAPKLLIYSASSLYSGVPSRFSGSRSGTDFTLTISSLQPEDFATYYCQQSSSSLVTFGQGTKVEIK
B2: hI365 IgG (antibody, V domains shown)
VH: B1 VH with F30Y, T54S, D55G, F108W
VL: B1 VL
B3: hA362 Fab (Fab, V domains shown)
VH: EVQLVESGGGLVQPGGSLRLSCAASGFNVSYYSIHWVRQAPGKGLEWVASISPYYGSTYYADSVKGRFTISADTSKNTAYLQMNSLRAEDTAVYYCARHPYRKGYSGLDYWGQGTLVTVSS
VL: DIQMTQSPSSLSASVGDRVTITCRASQSVSSAVAWYQQKPGKAPKLLIYSASSLYSGVPSRFSGSRSGTDFTLTISSLQPEDFATYYCQQSSYLPLFTFGQGTKVEIK
B4: E6 (affinity-matured variant of hI365) (antibody, V domains shown)
VH: B1 VH with F30Y, Y56R, S102R, F105N
VL: B3 VL with S92M, Y93S, L94S, P95Q, F97V
B5: hA362 IgG (antibody, V domains shown)
VH: B3 VH
VL: B3 VL

Columns and labels:
Experiment in all cases: BLI
[1] = target: T1, human protein arginine deiminase 4 (hPAD4), wild type (human, UniProt Q9UM07 1-663, biotin on the N-terminal AviTag)
T1 sequence (Q9UM07 whole entry): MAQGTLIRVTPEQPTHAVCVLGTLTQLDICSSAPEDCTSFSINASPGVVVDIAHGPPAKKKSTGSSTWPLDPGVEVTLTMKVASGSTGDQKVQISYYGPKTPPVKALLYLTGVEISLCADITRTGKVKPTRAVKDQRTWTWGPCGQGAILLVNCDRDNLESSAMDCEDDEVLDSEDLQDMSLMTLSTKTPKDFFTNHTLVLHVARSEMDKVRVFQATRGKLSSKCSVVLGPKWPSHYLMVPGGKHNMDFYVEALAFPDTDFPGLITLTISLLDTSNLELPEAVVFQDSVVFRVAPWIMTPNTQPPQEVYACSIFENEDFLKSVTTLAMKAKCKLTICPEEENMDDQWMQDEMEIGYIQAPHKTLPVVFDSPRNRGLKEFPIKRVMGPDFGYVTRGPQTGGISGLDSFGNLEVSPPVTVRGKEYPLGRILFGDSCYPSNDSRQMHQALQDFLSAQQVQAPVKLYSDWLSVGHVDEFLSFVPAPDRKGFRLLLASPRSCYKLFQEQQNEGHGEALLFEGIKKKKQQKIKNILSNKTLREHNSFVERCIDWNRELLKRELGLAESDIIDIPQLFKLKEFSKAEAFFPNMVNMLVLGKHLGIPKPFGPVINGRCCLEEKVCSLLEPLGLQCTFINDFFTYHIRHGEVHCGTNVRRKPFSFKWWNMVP

[2] = target: T1, human protein arginine deiminase 4 …; remark: listed apart in the source
hPAD4 Y435A = hPAD4 Y435A (human, UniProt Q9UM07 1-663, Y435A)
Chain of hPAD4 Y435A (Q9UM07 whole entry Y435A): as the sequence (Q9UM07 whole entry) above, with Y435A counted along it

hPAD4 N438R = hPAD4 N438R (human, UniProt Q9UM07 1-663, N438R)
Chain of hPAD4 N438R (Q9UM07 whole entry N438R): as the sequence (Q9UM07 whole entry) above, with N438R counted along it

[3] = target: T1, human protein arginine deiminase 4 …; remark: listed apart in the source
[4] = target: hPAD4 R8E–Y435A double mutant (human, UniProt Q9UM07 1-663, R8E | Y435A)
Chain of hPAD4 R8E–Y435A double mutant (Q9UM07 whole entry R8E/Y435A): as the sequence (Q9UM07 whole entry) above, with R8E, Y435A counted along it

Binder | Kd [1] | Kd [2] | further results
B1 | 2.4 nM | – | –
B2 | – | 1.8 nM | –
B3 | – | – | Kd (hPAD4 Y435A): 17.5 nM; Kd (hPAD4 N438R): 1.56 nM; Kd [3]: 1.7 nM; Kd [4]: 269 nM
B4 | 1.3 nM | – | –
B5 | – | 0.001 nM | –
